B1: Peptide B (human CaMKII-α 290-309, unphosphorylated, unlabeled) [human] / human CaMKII-α hub domain [human] (parent complex)
chain 1: LKKFNARRKLKGAILTTMLA
chain 2: VRKQEIIKVTEQLIEAISNGDFESYTKMCDPGMTAFEPEALGNLVEGLDFHRFYFENLWSRNSKPVHTTILNPHIHLMGDESACIAYIRITQYLDAGGIPRTAQSEETRVWHRRDGKWQIVHFHRSGAPSV

Variants of: B1
Assay: fluorescence polarisation competition; point read at 500 µM unlabeled peptide; 2 nM labeled peptide A bound to 30 µM hub; lower polarization = more labeled peptide competed off; parent: 150; read off a plot

Variant	response
chain 1 K3E, chain 1 R7E, chain 1 K11E	~210
chain 1 K11E	~180
chain 1 R7E	~160

From paper PMC4859805, “Molecular mechanism of activation-triggered subunit exchange in Ca^2+/calmodulin-dependent protein kinase II” (eLife, 2016)
